Test results: US20130011380A1
Where “and” joins values, the source holds several entries; their conditions need not be identical. Equal values may be shown once. Values belong to the substance of their own block, whether it stands above or below them.

What was measured:
Assay in all cases: anti-Flag IP-MS, mES nuclear extract
Rfc5 (mouse) = Rfc5 (mouse) (UniProt Q9D0F6)
Ssr1 (mouse) = Ssr1 (mouse) (UniProt Q9CY50)
Lmna (mouse) = Lmna (mouse) (UniProt P48678)
Kars (mouse) = Kars (mouse) (UniProt Q99MN1)
Lmo7 (mouse) = Lmo7 (mouse) (UniProt E9PYF4)
Aff4 (mouse) = Aff4 (mouse) (UniProt Q9ESC8)
Mcm6 (mouse) = Mcm6 (mouse) (UniProt P97311)
Abce1 (mouse) = Abce1 (mouse) (UniProt P61222)
Tmpo (mouse) = molecular target: Tmpo (mouse)
Krt18 (mouse) = Krt18 (mouse) (UniProt P05784)
Eef2 (mouse) = Eef2 (mouse) (UniProt P58252)
Tip2 (mouse) = molecular target: Tip2 (mouse)
Rfc2 (mouse) = Rfc2 (mouse) (UniProt Q9WUK4)
Bst2 (mouse) = Bst2 (mouse) (UniProt Q8R2Q8)
Ywhaz (mouse) = Ywhaz (mouse) (UniProt P63101)
Dnmt3a (mouse) = Dnmt3a (mouse) (UniProt O88508)
Pfkl (mouse) = Pfkl (mouse) (UniProt P12382)
Ywhab (mouse) = Ywhab (mouse) (UniProt Q9CQV8)
Tcp1 (mouse) = Tcp1 (mouse) (UniProt P11983)
Gm1040 (mouse) = Gm1040 (mouse) (UniProt Q3UFM5)
Seh1l (mouse) = Seh1l (mouse) (UniProt Q8R2U0)
Spnb2 (mouse) = Spnb2 (mouse) (UniProt Q62261)
Ahdc1 (mouse) = Ahdc1 (mouse) (UniProt Q6PAL7)
Supt5h (mouse) = Supt5h (mouse) (UniProt O55201)
Rpn1 (mouse) = Rpn1 (mouse) (UniProt Q91YQ5)
Ints3 (mouse) = Ints3 (mouse) (UniProt Q7TPD0)
Etl4 (mouse) = Etl4 (mouse) (UniProt A2AQ25)
Aff1 (mouse) = Aff1 (mouse) (UniProt O88573)
Chd4 (mouse) = Chd4 (mouse) (UniProt Q6PDQ2)
Wapal (mouse) = Wapal (mouse) (UniProt Q65Z40)
Ruvbl1 (mouse) = Ruvbl1 (mouse) (UniProt P60122)
Kif23 (mouse) = Kif23 (mouse) (UniProt E9Q5G3)

Sequence of Aff4 (mouse) (Q9ESC8 whole entry): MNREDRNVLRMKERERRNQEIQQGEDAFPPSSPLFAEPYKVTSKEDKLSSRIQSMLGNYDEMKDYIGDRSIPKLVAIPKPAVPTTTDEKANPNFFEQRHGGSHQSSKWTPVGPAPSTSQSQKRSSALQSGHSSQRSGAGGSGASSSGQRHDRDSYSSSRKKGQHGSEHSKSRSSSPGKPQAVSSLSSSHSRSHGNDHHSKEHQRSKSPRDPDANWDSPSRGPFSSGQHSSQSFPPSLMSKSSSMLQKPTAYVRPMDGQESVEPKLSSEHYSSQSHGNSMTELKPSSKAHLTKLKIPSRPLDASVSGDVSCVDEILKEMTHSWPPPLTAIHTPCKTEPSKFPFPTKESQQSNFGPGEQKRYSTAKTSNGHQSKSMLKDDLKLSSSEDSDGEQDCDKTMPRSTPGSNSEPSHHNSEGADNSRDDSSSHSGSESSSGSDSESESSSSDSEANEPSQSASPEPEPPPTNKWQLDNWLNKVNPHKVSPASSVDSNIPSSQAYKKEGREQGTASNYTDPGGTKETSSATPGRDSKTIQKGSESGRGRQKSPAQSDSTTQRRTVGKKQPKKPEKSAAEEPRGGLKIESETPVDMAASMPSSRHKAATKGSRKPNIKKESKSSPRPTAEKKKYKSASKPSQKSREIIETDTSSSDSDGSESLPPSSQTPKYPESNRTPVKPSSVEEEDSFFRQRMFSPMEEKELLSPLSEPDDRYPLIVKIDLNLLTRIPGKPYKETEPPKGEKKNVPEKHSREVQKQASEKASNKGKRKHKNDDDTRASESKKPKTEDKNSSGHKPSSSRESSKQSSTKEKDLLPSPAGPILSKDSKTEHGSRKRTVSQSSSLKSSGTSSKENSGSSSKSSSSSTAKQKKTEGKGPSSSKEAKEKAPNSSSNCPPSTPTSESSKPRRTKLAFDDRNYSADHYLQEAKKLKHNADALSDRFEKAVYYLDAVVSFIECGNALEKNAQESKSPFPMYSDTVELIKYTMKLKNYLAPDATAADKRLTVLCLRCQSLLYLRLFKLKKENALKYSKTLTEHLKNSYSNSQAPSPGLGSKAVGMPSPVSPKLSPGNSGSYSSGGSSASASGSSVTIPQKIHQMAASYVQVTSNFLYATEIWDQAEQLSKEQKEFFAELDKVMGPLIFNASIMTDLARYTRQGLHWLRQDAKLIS
Sequence of Rfc5 (mouse) (Q9D0F6 whole entry): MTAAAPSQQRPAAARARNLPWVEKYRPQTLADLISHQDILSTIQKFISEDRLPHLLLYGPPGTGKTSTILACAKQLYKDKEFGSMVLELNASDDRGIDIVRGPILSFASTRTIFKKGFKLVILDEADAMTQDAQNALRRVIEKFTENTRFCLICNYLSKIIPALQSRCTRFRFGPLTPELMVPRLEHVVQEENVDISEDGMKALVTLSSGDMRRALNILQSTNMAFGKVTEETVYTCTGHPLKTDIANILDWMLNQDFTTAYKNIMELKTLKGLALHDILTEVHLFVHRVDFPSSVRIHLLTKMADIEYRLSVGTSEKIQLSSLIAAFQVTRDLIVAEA
Sequence of Rpn1 (mouse) (Q91YQ5 26-608 limits assumed): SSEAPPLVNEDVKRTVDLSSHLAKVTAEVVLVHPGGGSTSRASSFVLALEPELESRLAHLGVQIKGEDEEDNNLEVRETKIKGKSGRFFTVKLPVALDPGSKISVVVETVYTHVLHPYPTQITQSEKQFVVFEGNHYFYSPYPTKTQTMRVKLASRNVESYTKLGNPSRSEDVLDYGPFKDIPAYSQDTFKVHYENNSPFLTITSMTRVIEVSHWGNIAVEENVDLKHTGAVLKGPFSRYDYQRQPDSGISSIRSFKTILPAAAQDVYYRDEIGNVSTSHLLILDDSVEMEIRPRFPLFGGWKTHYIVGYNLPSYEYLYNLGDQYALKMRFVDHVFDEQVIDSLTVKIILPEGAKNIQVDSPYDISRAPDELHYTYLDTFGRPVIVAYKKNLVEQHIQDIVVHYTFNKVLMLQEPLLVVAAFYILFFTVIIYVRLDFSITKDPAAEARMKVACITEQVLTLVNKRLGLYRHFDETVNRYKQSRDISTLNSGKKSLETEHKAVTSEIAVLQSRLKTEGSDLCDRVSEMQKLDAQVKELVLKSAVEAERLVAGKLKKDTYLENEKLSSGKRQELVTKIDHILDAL
Sequence of Spnb2 (mouse) (Q62261 2-2363 limits assumed): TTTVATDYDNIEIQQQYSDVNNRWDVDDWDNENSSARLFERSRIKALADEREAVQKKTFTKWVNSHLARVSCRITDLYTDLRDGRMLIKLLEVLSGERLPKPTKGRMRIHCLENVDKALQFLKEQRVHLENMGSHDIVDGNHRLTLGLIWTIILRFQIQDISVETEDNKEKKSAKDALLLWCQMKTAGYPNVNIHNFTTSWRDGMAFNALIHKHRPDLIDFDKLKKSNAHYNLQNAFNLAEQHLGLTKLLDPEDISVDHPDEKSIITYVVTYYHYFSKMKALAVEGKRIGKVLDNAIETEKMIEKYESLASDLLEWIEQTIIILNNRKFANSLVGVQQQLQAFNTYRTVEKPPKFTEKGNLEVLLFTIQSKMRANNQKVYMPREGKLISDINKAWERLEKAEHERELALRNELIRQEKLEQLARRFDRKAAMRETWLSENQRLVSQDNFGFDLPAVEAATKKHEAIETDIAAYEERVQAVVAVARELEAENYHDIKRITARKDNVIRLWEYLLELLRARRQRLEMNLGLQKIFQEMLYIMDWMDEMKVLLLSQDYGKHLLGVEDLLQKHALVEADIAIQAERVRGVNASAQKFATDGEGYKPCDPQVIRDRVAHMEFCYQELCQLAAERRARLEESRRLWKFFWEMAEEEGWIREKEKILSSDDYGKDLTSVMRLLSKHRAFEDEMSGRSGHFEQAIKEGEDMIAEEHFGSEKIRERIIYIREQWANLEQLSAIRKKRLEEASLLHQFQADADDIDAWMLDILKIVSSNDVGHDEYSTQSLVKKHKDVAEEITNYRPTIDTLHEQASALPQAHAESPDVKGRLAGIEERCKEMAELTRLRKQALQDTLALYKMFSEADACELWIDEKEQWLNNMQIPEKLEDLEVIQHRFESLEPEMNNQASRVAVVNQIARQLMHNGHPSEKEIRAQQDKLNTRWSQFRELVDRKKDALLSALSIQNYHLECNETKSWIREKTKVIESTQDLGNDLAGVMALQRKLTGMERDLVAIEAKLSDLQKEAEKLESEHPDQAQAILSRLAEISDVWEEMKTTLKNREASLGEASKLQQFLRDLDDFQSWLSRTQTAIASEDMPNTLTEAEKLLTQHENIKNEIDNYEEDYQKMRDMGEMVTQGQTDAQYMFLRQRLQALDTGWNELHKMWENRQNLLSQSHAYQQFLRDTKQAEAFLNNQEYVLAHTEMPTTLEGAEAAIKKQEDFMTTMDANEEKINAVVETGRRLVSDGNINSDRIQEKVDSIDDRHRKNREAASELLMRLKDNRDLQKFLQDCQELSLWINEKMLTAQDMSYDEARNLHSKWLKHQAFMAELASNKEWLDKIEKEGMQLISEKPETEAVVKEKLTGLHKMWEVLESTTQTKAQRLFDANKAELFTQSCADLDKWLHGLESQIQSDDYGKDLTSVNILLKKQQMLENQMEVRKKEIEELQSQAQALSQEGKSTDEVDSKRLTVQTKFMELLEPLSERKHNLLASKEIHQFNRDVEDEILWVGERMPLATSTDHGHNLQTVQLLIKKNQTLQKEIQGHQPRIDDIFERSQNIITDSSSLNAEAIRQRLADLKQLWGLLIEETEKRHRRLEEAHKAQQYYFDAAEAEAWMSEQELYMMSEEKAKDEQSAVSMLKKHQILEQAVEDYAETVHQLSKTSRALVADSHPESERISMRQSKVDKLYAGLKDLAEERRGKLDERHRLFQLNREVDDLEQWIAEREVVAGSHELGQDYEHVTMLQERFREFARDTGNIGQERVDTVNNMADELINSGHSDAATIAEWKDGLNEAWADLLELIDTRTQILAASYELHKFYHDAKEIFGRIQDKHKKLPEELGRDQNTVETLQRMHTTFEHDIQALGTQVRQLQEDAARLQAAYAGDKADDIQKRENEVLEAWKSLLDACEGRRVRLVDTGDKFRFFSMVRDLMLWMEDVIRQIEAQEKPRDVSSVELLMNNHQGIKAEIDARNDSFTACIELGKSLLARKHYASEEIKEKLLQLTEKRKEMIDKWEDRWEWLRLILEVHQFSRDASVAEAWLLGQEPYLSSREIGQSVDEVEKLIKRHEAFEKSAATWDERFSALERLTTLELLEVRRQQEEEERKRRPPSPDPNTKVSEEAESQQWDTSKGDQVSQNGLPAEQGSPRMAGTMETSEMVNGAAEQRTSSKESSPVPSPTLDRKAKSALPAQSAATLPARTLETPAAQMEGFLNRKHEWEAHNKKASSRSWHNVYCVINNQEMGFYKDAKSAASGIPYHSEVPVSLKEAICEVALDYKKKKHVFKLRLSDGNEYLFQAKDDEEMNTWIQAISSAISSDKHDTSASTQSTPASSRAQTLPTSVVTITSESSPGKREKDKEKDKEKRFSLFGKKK
Sequence of Ywhaz (mouse) (P63101 whole entry): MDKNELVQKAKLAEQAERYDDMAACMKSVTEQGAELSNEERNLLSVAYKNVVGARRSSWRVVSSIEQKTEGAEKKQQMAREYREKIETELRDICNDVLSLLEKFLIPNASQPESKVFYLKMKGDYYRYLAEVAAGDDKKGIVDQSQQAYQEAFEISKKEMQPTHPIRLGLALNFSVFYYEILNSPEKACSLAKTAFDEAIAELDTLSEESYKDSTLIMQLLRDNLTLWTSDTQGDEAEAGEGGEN
Sequence of Ssr1 (mouse) (Q9CY50 22-286 limits assumed): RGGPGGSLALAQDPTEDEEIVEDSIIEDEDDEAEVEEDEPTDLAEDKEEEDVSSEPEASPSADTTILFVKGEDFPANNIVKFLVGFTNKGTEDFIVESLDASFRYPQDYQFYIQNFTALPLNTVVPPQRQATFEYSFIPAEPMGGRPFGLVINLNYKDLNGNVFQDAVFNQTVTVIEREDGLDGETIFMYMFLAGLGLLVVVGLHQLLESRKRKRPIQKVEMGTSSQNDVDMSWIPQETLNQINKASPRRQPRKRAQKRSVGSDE

- Nucleus peptide (Rfc5 (mouse)): 0 peptides
- Nucleus spectra (Rfc5 (mouse)): 0 spectra
- Nucleus peptide (Ssr1 (mouse)): 0 peptides
- Nucleus spectra (Ssr1 (mouse)): 0 spectra
- Nucleus peptide (Lmna (mouse)): 1 peptides
- Nucleus spectra (Lmna (mouse)): 3 spectra
- Nucleus peptide (Kars (mouse)): 0 peptides
- Nucleus spectra (Kars (mouse)): 0 spectra
- Nucleus peptide (Lmo7 (mouse)): 0 peptides
- Nucleus spectra (Lmo7 (mouse)): 0 spectra
- Nucleus peptide (Aff4 (mouse)): 0 peptides
- Nucleus spectra (Aff4 (mouse)): 0 spectra
- Nucleus peptide (Mcm6 (mouse)): 8 peptides
- Nucleus spectra (Mcm6 (mouse)): 12 spectra
- Nucleus peptide (Abce1 (mouse)): 3 peptides
- Nucleus spectra (Abce1 (mouse)): 3 spectra
- Nucleus peptide (Tmpo (mouse)): 2 peptides
- Nucleus spectra (Tmpo (mouse)): 6 spectra
- Nucleus peptide (Krt18 (mouse)): 13 peptides
- Nucleus spectra (Krt18 (mouse)): 29 spectra
- Nucleus peptide (Eef2 (mouse)): 6 peptides
- Nucleus spectra (Eef2 (mouse)): 9 spectra
- Nucleus peptide (Tip2 (mouse)): 6 peptides
- Nucleus spectra (Tip2 (mouse)): 14 spectra
- Nucleus peptide (Rfc2 (mouse)): 0 peptides
- Nucleus spectra (Rfc2 (mouse)): 0 spectra
- Nucleus peptide (Bst2 (mouse)): 1 peptides
- Nucleus spectra (Bst2 (mouse)): 1 spectra
- Nucleus peptide (Ywhaz (mouse)): 1 peptides
- Nucleus spectra (Ywhaz (mouse)): 6 spectra
- Nucleus peptide (Dnmt3a (mouse)): 0 peptides
- Nucleus spectra (Dnmt3a (mouse)): 0 spectra
- Nucleus peptide (Pfkl (mouse)): 1 peptides
- Nucleus spectra (Pfkl (mouse)): 1 spectra
- Nucleus peptide (Ywhab (mouse)): 0 peptides
- Nucleus spectra (Ywhab (mouse)): 0 spectra
- Nucleus peptide (Tcp1 (mouse)): 1 peptides
- Nucleus spectra (Tcp1 (mouse)): 2 spectra
- Nucleus peptide (Gm1040 (mouse)): 1 peptides
- Nucleus spectra (Gm1040 (mouse)): 1 spectra
- Nucleus peptide (Seh1l (mouse)): 2 peptides
- Nucleus spectra (Seh1l (mouse)): 4 spectra
- Nucleus peptide (Spnb2 (mouse)): 7 peptides
- Nucleus spectra (Spnb2 (mouse)): 11 spectra
- Nucleus peptide (Ahdc1 (mouse)): 0 peptides
- Nucleus spectra (Ahdc1 (mouse)): 0 spectra
- Nucleus peptide (Supt5h (mouse)): 1 peptides
- Nucleus spectra (Supt5h (mouse)): 1 spectra
- Nucleus peptide (Rpn1 (mouse)): 0 peptides
- Nucleus spectra (Rpn1 (mouse)): 0 spectra
- Nucleus peptide (Ints3 (mouse)): 0 peptides
- Nucleus spectra (Ints3 (mouse)): 0 spectra
- Nucleus peptide (Etl4 (mouse)): 0 peptides
- Nucleus spectra (Etl4 (mouse)): 0 spectra
- Nucleus peptide (Aff1 (mouse)): 0 peptides
- Nucleus spectra (Aff1 (mouse)): 0 spectra
- Nucleus peptide (Chd4 (mouse)): 4 peptides
- Nucleus spectra (Chd4 (mouse)): 6 spectra
- Nucleus peptide (Wapal (mouse)): 0 peptides
- Nucleus spectra (Wapal (mouse)): 0 spectra
- Nucleus peptide (Ruvbl1 (mouse)): 9 peptides
- Nucleus spectra (Ruvbl1 (mouse)): 17 spectra
Substance: 2x Flag tag only (control) (peptide)

- Nucleus peptide (Rfc5 (mouse)): 3 peptides
- Nucleus spectra (Rfc5 (mouse)): 5 spectra
- Nucleus peptide (Ssr1 (mouse)): 3 peptides
- Nucleus spectra (Ssr1 (mouse)): 9 spectra
- Nucleus peptide (Lmna (mouse)): 6 peptides
- Nucleus spectra (Lmna (mouse)): 13 spectra
- Nucleus peptide (Kars (mouse)): 6 peptides
- Nucleus spectra (Kars (mouse)): 9 spectra
- Nucleus peptide (Kif23 (mouse)): 4 peptides and 7 peptides
- Nucleus spectra (Kif23 (mouse)): 11 spectra and 18 spectra
- Nucleus peptide (Aff4 (mouse)): 13 peptides
- Nucleus spectra (Aff4 (mouse)): 25 spectra
- Nucleus peptide (Mcm6 (mouse)): 13 peptides
- Nucleus spectra (Mcm6 (mouse)): 29 spectra
- Nucleus peptide (Abce1 (mouse)): 7 peptides
- Nucleus spectra (Abce1 (mouse)): 11 spectra
- Nucleus peptide (Krt18 (mouse)): 21 peptides
- Nucleus spectra (Krt18 (mouse)): 96 spectra
- Nucleus peptide (Eef2 (mouse)): 13 peptides
- Nucleus spectra (Eef2 (mouse)): 24 spectra
- Nucleus peptide (Rfc2 (mouse)): 3 peptides
- Nucleus spectra (Rfc2 (mouse)): 8 spectra
- Nucleus peptide (Bst2 (mouse)): 4 peptides
- Nucleus spectra (Bst2 (mouse)): 12 spectra
- Nucleus peptide (Ywhaz (mouse)): 6 peptides
- Nucleus spectra (Ywhaz (mouse)): 17 spectra
- Nucleus peptide (Dnmt3a (mouse)): 6 peptides
- Nucleus spectra (Dnmt3a (mouse)): 13 spectra
- Nucleus peptide (Pfkl (mouse)): 6 peptides
- Nucleus spectra (Pfkl (mouse)): 10 spectra
- Nucleus peptide (Ywhab (mouse)): 3 peptides
- Nucleus spectra (Ywhab (mouse)): 7 spectra
- Nucleus peptide (Tcp1 (mouse)): 3 peptides
- Nucleus spectra (Tcp1 (mouse)): 5 spectra
- Nucleus peptide (Gm1040 (mouse)): 5 peptides
- Nucleus spectra (Gm1040 (mouse)): 8 spectra
- Nucleus peptide (Seh1l (mouse)): 5 peptides
- Nucleus spectra (Seh1l (mouse)): 13 spectra
- Nucleus peptide (Spnb2 (mouse)): 17 peptides
- Nucleus spectra (Spnb2 (mouse)): 26 spectra
- Nucleus peptide (Ahdc1 (mouse)): 8 peptides
- Nucleus spectra (Ahdc1 (mouse)): 15 spectra
- Nucleus peptide (Supt5h (mouse)): 6 peptides
- Nucleus spectra (Supt5h (mouse)): 11 spectra
- Nucleus peptide (Rpn1 (mouse)): 3 peptides
- Nucleus spectra (Rpn1 (mouse)): 5 spectra
- Nucleus peptide (Ints3 (mouse)): 4 peptides
- Nucleus spectra (Ints3 (mouse)): 5 spectra
- Nucleus peptide (Etl4 (mouse)): 7 peptides
- Nucleus spectra (Etl4 (mouse)): 13 spectra
- Nucleus peptide (Aff1 (mouse)): 3 peptides
- Nucleus spectra (Aff1 (mouse)): 6 spectra
- Nucleus peptide (Chd4 (mouse)): 15 peptides
- Nucleus spectra (Chd4 (mouse)): 26 spectra
- Nucleus peptide (Wapal (mouse)): 18 peptides
- Nucleus spectra (Wapal (mouse)): 41 spectra
- Nucleus peptide (Ruvbl1 (mouse)): 13 peptides
- Nucleus spectra (Ruvbl1 (mouse)): 37 spectra
Substance: human AID containing two tandem Flag tags (Flag-human AID) (from UniProt Q9GZX7 1-198) (enzyme)
